Reference: IntAct's records for PubMed 26258632

B1: Mitotic spindle assembly checkpoint protein MAD1 (Homo sapiens), Q9Y6D9 (parent)
chain: MEDLGENTMVLSTLRSLNNFISQRVEGGSGLDISTSAPGSLQMQYQQSMQLEERAEQIRSKSHLIQVEREKMQMELSHKRARVELERAASTSARNYEREVDRNQELLTRIRQLQEREAGAEEKMQEQLERNRQCQQNLDAASKRLREKEDSLAQAGETINALKGRISELQWSVMDQEMRVKRLESEKQELQEQLDLQHKKCQEANQKIQELQASQEARADHEQQIKDLEQKLSLQEQDAAIVKNMKSELVRLPRLERELKQLREESAHLREMRETNGLLQEELEGLQRKLGRQEKMQETLVGLELENERLLAKLQSWERLDQTMGLSIRTPEDLSRFVVELQQRELALKDKNSAVTSSARGLEKARQQLQEELRQVSGQLLEERKKRETHEALARRLQKRVLLLTKERDGMRAILGSYDSELTPAEYSPQLTRRMREAEDMVQKVHSHSAEMEAQLSQALEELGGQKQRADMLEMELKMLKSQSSSAEQSFLFSREEADTLRLKVEELEGERSRLEEEKRMLEAQLERRALQGDYDQSRTKVLHMSLNPTSVARQRLREDHSQLQAECERLRGLLRAMERGGTVPADLEAAAASLPSSKEVAELKKQVESAELKNQRLKEVFQTKIQEFRKACYTLTGYQIDITTENQYRLTSLYAEHPGDCLIFKATSPSGSKMQLLETEFSHTVGELIEVHLRRQDSIPAFLSSLTLELFSRQTVA

Variants of: B1
Settings: with cenpe_human CENPE

Variant | effect of a mutation on the interaction
L17A;N18A;N19A;F20A;I21A | disrupting interaction strength

Variants of: B1
Settings: with cenpe_human CENPE
Remark: another data set of the same source

Variant | effect of a mutation on the interaction
L17A;N18A;N19A;F20A;I21A | decreasing interaction strength
